Test results published in IntAct's records for PubMed 27852061.

B1: Forkhead box protein E1 (Homo sapiens), O00358 (parent)
chain: MTAESGPPPPQPEVLATVKEERGETAAGAGVPGEATGRGAGGRRRKRPLQRGKPPYSYIALIAMAIAHAPERRLTLGGIYKFITERFPFYRDNPKKWQNSIRHNLTLNDCFLKIPREAGRPGKGNYWALDPNAEDMFESGSFLRRRKRFKRSDLSTYPAYMHDAAAAAAAAAAAAAAAAIFPGAVPAARPPYPGAVYAGYAPPSLAAPPPVYYPAASPGPCRVFGLVPERPLSPELGPAPSGPGGSCAFASAGAPATTTGYQPAGCTGARPANPSAYAAAYAGPDGAYPQGAGSAIFAAAGRLAGPASPPAGGSSGGVETTVDFYGRTSPGQFGALGACYNPGGQLGGASAGAYHARHAAAYPGGIDRFVSAM
partner: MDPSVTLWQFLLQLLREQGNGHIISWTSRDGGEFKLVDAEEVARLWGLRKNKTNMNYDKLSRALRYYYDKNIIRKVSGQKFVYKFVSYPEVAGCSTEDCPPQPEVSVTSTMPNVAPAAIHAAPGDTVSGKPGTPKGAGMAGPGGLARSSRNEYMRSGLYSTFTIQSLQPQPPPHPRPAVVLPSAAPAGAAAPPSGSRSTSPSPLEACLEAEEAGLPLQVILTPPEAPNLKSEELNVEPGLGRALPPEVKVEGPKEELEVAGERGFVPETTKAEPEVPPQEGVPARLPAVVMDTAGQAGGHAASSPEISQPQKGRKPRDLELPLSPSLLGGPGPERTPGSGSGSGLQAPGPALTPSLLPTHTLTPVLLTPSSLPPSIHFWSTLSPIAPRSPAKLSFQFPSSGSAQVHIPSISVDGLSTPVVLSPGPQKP

Variants of: B1
Conditions: with elk1_human ELK1, P19419

Variant | effect of a mutation on the interaction
A65V | with no effect
